Assay [1] has as its target single-chain trimer (SCT) of HLA-A2.1 (TAX-HLA-A2.1-hβM). The experiment in a line: co-IP.
In assay [2] the target is MHC-I (endogenous, mouse primary cortical neurons) (mouse (endogenous in primary cortical neurons)) (UniProt P01901). Kind of assay: co-IP; cultured mouse primary cortical neurons, with or without oligomeric Aβ; anti-mouse MHC-I antibody (2G5); endogenous MHC-I and NCAM1.
UniProt P01901, sequence (P01901 22-369): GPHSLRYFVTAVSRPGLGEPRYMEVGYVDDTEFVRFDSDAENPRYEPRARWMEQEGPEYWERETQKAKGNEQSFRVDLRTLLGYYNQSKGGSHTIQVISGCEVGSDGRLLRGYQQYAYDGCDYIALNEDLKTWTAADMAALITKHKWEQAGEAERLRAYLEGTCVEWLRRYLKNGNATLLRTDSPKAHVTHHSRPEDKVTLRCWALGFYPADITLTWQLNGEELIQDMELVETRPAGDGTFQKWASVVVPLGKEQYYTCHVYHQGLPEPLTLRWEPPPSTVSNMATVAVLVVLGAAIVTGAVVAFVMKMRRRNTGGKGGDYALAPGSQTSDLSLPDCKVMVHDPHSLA

In assay [1], “NCAM1-hemagglutinin (HA) (from UniProt P13591 20-858) (natural protein)” had a fold increase of the complex with Aβ treatment of 1.5 fold.
Substance “NCAM1 (endogenous, mouse primary cortical neurons) (from UniProt P13595 20-1115) (natural protein)” registered a reduction of co-precipitated NCAM1 with Aβ treatment against control in assay [2] of 50%.

The values above are taken from PMC10540404.
